B1: AP-1 complex subunit gamma-1 (Mus musculus), P22892 (parent)
chain: MPAPIRLRELIRTIRTARTQAEEREMIQKECAAIRSSFREEDNTYRCRNVAKLLYMHMLGYPAHFGQLECLKLIASQKFTDKRIGYLGAMLLLDERQDVHLLMTNCIKNDLNHSTQFVQGLALCTLGCMGSSEMCRDLAGEVEKLLKTSNSYLRKKAALCAVHVIRKVPELMEMFLPATKNLLNEKNHGVLHTSVVLLTEMCERSPDMLAHFRKLVPQLVRILKNLIMSGYSPEHDVSGISDPFLQVRILRLLRILGRNDDDSSEAMNDILAQVATNTETSKNVGNAILYETVLTIMDIKSESGLRVLAINILGRFLLNNDKNIRYVALTSLLKTVQTDHNAVQRHRSTIVDCLKDLDVSIKRRAMELSFALVNGNNIRGMMKELLYFLDSCEPEFKADCASGIFLAAEKYAPSKRWHIDTIMRVLTTAGSYVRDDAVPNLIQLITNSVEMHAYTVQRLYKAILGDYSQQPLVQVAAWCIGEYGDLLVSGQCEEEEPIQVTEDEVLDILESVLISNMSTSVTRGYALTAIMKLSTRFTCTVNRIKKVVSIYGSSIDVELQQRAVEYNALFKKYDHMRSALLERMPVMEKVTTNGPSEIVQTNGETEPAPLETKPPPSGPQPTSQANDLLDLLGGNDITPVIPTAPTSKPASAGGELLDLLGDITLTGAPAAAPTPASVPQISQPPFLLDGLSSQPLFNDIAPGIPSITAYSKNGLKIEFTFERSNTNPSVTVITIQASNSTELDMTDFVFQAAVPKTFQLQLLSPSSSVVPAFNTGTITQVIKVLNPQKQQLRMRIKLTYNHKGSAMQDLAEVNNFPPQSWQ
partner: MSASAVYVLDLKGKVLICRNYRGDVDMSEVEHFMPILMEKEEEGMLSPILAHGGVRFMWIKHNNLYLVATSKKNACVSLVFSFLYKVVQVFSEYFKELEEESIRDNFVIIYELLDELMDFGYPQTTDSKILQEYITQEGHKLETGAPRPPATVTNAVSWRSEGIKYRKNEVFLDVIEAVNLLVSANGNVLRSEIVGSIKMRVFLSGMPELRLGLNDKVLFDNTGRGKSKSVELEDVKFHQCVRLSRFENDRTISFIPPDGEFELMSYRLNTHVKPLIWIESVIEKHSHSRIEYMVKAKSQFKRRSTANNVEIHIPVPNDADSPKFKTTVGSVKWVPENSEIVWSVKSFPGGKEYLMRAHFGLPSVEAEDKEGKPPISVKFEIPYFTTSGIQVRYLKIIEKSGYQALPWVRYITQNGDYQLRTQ
B2: AP-1 complex subunit beta-1 (Homo sapiens), Q10567 (parent)
chain: MTDSKYFTTTKKGEIFELKAELNSDKKEKKKEAVKKVIASMTVGKDVSALFPDVVNCMQTDNLELKKLVYLYLMNYAKSQPDMAIMAVNTFVKDCEDPNPLIRALAVRTMGCIRVDKITEYLCEPLRKCLKDEDPYVRKTAAVCVAKLHDINAQLVEDQGFLDTLKDLISDSNPMVVANAVAALSEIAESHPSSNLLDLNPQSINKLLTALNECTEWGQIFILDCLANYMPKDDREAQSICERVTPRLSHANSAVVLSAVKVLMKFMEMLSKDLDYYGTLLKKLAPPLVTLLSAEPELQYVALRNINLIVQKRPEILKHEMKVFFVKYNDPIYVKLEKLDIMIRLASQANIAQVLAELKEYATEVDVDFVRKAVRAIGRCAIKVEQSAERCVSTLLDLIQTKVNYVVQEAIVVIKDIFRKYPNKYESVIATLCENLDSLDEPEARAAMIWIVGEYAERIDNADELLESFLEGFHDESTQVQLQLLTAIVKLFLKKPTETQELVQQVLSLATQDSDNPDLRDRGYIYWRLLSTDPVAAKEVVLAEKPLISEETDLIEPTLLDELICYIGTLASVYHKPPSAFVEGGRGVVHKSLPPRTASSESAESPETAPTGAPPGEQPDVIPAQGDLLGDLLNLDLGPPVSGPPLATSSVQMGAVDLLGGGLDSLMGDEPEGIGGTNFVAPPTAAVPANLGAPIGSGLSDLFDLTSGVGTLSGSYVAPKAVWLPAMKAKGLEISGTFTRQVGSISMDLQLTNKALQVMTDFAIQFNRNSFGLAPAAPLQVHAPLSPNQTVEISLPLSTVGSVMKMEPLNNLQVAVKNNIDVFYFSTLYPLHILFVEDGKMDRQMFLATWKDIPNENEAQFQIRDCPLNAEAASSKLQSSNIFTVAKRNVEGQDMLYQSLKLTNGIWVLAELRIQPGNPSCTDLELSLKCRAPEVSQHVYQAYETILKN

Variants of: B1
Settings: with ap1m1_mouse Ap1m1, P35585

| Variant | effect of a mutation on the interaction |
| --- | --- |
| L68D;L71E;L102E | disrupting interaction strength |

Variants of: B2
Settings: with ap1g1_human AP1G1, O43747

| Variant | effect of a mutation on the interaction |
| --- | --- |
| I85D;V88D | disrupting interaction strength |

From IntAct's records for PubMed 23415225
